Reference: patent publication US20120316071A1 (published 2012)
Numbering of substitutions follows the chain as printed. In names and notes the source's numbering stands.

Assays:
[1] = target: T1, rHuman ErbB2/Fc Chimera, CF (R&D Systems Cat#1129-ER) (human, UniProt P04626 23-652); test: Multispot ECL (MSD) binding screen, antigen spotted on plate; hit = signal/blank >= 4
T1 construct: Bought Fc chimera; also called human epidermal growth factor 2 receptor; Fc part of the bought chimera not given

[2] = target: T2, rHuman Erythropoietin R/Fc Chimera, CF (R&D Systems Cat#963-ER) (human, UniProt P19235 25-250); test: ECL multispot (MSD) assay, antigen spotted on plate, Fab at 0.01 µM
T2 construct: Bought recombinant protein; also called EPO R; EPO R/Fc; Fc part of the bought chimera not given
T2 sequence (looked up): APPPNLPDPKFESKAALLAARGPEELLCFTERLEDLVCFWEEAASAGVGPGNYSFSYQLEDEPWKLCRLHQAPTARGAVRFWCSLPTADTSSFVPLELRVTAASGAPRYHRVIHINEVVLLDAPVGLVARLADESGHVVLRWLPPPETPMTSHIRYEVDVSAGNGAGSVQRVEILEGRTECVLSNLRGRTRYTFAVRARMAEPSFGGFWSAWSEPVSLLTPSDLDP

[3] = target: T3, rHuman ErbB2/Fc Chimera, CF (R&D Systems Cat#1129-ER) (human, UniProt P04626 23-652); test: as above
T3 construct: Bought recombinant protein; also called human epidermal growth factor 2 receptor; Fc part of the bought chimera not given

[4] = target: T4, rHuman P-Cadherin/Fc Chimera, CF (R&D Systems Cat#861-PC) (human, UniProt P22223 108-654); test: as above
T4 construct: Bought recombinant protein; Fc part of the bought chimera not given

[5] = target: T5, rHuman HGF R/c-MET/Fc Chimera, CF (R&D Systems Cat#358-MT/CF) (human, UniProt P08581 25-932); test: as above
T5 construct: Bought recombinant protein; also called HGF R/Fc; hepatocyte growth factor receptor; Fc part of the bought chimera not given

[6] = target: T6, rHuman CD44/Fc Chimera, CF (R&D Systems Cat#3660-CD) (human, UniProt P16070 21-220); test: as above
T6 construct: Bought recombinant protein; Fc part of the bought chimera not given

[7] = target: T7, rHuman Notch-1/Fc Chimera, CF (R&D Systems Cat#3647-TK) (human, UniProt P46531 19-526); test: as above
T7 construct: Bought recombinant protein; Fc part of the bought chimera not given

[8] = target: T8, rHuman IGF-1 sR, CF (R&D Systems Cat#391-GR) (human, UniProt P08069 31-932); test: as above
T8 construct: Bought recombinant soluble receptor; also called insulin-like growth factor-1 soluble receptor

[9] = target: T9, Recombinant Human DLL4 (R&D Systems Cat#1506-D4/CF) (human, UniProt Q9NR61 27-524); test: as above
T9 construct: Bought recombinant protein; also called delta-like protein 4; rHuman DLL4

[10] = target: T10, rHuman EGF R/Fc Chimera, CF (R&D Systems Cat#344-ER) (human, UniProt P00533 25-645); test: as above
T10 construct: Bought recombinant protein; also called epidermal growth factor receptor; Fc part of the bought chimera not given

[11] = target: T11, Recombinant Human DLL4 (R&D Systems Cat#1506-D4/CF) (human, UniProt Q9NR61 27-524); test: ECL multispot (MSD) binding assay; DLL4 signal over blank spot
T11 construct: Bought recombinant protein; also called delta-like protein 4; rHuman DLL4

[12] = target: T11, Recombinant Human DLL4 (R&D Systems …); test: ECL multispot (MSD) binding assay; DLL4 spotted on the plate, purified Fab added
[13] = target: T12, rHuman Notch-1/Fc Chimera (human, UniProt P46531 19-526); test: ECL multispot (MSD) binding assay; antigen spotted on plate, Fab in solution;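 note: purified Fab bound for 1 h at 20 °C, detected with a TAG-labelled antibody, electrochemiluminescence compared with each well's blank, signal-to-blank ratio of at least 4 scored as hit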
T12 construct: Bought from R&D Systems (Cat#3647-TK)

rHuman ErbB2/Fc Chimera = rHuman ErbB2/Fc Chimera (human, UniProt P04626 23-652); test: as above
[14] = target: T13, Recombinant Human DLL4 (delta-like protein 4) (human, UniProt Q9NR61 27-529); test: as above
T13 construct: Bought from R&D Systems (Cat#1506-D4/CF); also called rHuman DLL4

rHuman CD44/Fc Chimera = rHuman CD44/Fc Chimera (human, UniProt P16070 21-220); test: as above
[15] = target: T14, rHuman HGF R/c-MET/Fc Chimera (human, UniProt P08581 25-932); test: as above
T14 construct: also called HGF R/Fc

[16] = target: T15, rHuman Erythropoietin R/Fc Chimera (human, UniProt P19235 25-250); test: as above
T15 construct: also called EPO R; EPO R/Fc
T15 sequence (looked up): T2 sequence (looked up)

[17] = target: rHuman IGF-1 sR (insulin-like growth factor-1 soluble receptor) (human, UniProt P08069 31-932); test: as above
rHuman EGF R/Fc Chimera = rHuman EGF R/Fc Chimera (human, UniProt P00533 25-645); test: as above
[18] = target: T16, rHuman P-Cadherin/Fc Chimera (human, UniProt P22223 108-654); test: as above
T16 construct: Bought from R&D Systems (Cat#861-PC)

[19] = target: T17, Recombinant Human DLL4 (delta-like protein 4) (human, UniProt Q9NR61 27-524); test: ECL Multispot (MSD) binding assay, DLL4 spotted on plate, 10 nM Fab; ECL signal over blank spot
T17 construct: Bought recombinant protein (R&D Systems Cat#1506-D4/CF), spotted on the MSD plate; also called rHuman DLL4; Delta-like 4

[20] = target: T18, Recombinant Human DLL4 (delta-like protein 4) (human, UniProt Q9NR61 27-524); test: ECL Multispot (MSD) binding assay, DLL4 spotted on plate, 10 nM Fab
T18 construct: Bought recombinant protein (R&D Systems Cat#1506-D4/CF); also called rHuman DLL4; Delta-like 4

T14 sequence (P08581 25-932, change not shown): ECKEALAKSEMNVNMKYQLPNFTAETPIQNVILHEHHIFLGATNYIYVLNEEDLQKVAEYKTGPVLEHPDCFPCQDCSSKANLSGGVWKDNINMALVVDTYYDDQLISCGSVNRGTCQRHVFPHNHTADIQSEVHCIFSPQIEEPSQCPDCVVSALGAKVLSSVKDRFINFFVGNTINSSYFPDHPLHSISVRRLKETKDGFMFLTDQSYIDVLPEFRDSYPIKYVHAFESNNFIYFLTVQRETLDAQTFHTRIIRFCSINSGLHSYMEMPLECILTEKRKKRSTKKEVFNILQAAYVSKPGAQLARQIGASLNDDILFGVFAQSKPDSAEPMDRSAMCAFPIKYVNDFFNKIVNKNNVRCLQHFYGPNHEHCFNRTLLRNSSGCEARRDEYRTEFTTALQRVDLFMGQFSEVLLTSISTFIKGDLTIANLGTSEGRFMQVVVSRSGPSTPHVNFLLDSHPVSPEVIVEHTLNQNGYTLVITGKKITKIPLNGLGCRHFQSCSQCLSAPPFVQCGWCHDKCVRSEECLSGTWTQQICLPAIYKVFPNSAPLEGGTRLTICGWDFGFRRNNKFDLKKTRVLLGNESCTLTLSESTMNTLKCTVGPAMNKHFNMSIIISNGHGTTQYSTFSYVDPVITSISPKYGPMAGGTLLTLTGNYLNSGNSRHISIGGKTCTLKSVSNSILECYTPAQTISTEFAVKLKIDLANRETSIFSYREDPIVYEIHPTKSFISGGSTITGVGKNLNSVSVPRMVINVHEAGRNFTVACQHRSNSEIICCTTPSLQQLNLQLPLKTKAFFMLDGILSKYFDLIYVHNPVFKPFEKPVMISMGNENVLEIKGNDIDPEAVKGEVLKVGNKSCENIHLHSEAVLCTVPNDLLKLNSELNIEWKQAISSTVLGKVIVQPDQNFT
T5 sequence (P08581 25-932, change not shown): as above

B1: Fab VH2-5_IGHD7-27*01_IGHJ2*01 & L2_IGKJ1*01 (Fab, V domains shown)
VH: QITLKESGPTLVKPTQTLTLTCTFSGFSLSTSGVGVGWIRQPPGKALEWLALIYWNDDKRYSPSLKSRLTITKDTSKNQVVLTMTNMDPVDTATYYCAHRPNWGYWYFDLWGRGTLVTVSS
VL: not shown
B1: binds [1].

B2: Fab VH1-46_IGHD6-6*01_IGHJ1*01 & L6_IGKJ1*01 (Fab, V domains shown)
VH: QVQLVQSGAEVKKPGASVKVSCKASGYTFTSYYMHWVRQAPGQGLEWMGIINPSGGSTSYAQKFQGRVTMTRDTSTSTVYMELSSLRSEDTAVYYCAREEYSSSSAEYFQHWGQGTLVTVSS
VL: not shown
notes: Tested as a Fab expressed in E. coli; The heavy chain variable region was cloned into Plasmid A (CH1, His6 and Flag tags) and the kappa light chain variable region into Plasmid C (kappa CL); also called Parent; parental
An ECL signal/noise ratio [2] of 1, an ECL signal/noise ratio [3] of 1 and an ECL signal/noise ratio [4] of 1 were found for B2 in this work. It also gave an ECL signal/noise ratio [5] of 0.9, an ECL signal/noise ratio [6] of 1.1 and an ECL signal/noise ratio [7] of 0.5. For the same binder, the ECL signal/noise ratio [8] was 0.8, the ECL signal/noise ratio [9] was 4.9 and the ECL signal/noise ratio [10] was 0.9.

B3: Fab VH1-46_IGHD6-6*01_IGHJ1*01 S102A/S103P/S104F/H111F (APFF) & L6_IGKJ1*01 (Fab, V domains shown)
VH: B2 VH with S102A, S103P, S104F, H111F
VL: not shown
notes: Tested as an E. coli-expressed Fab; also called H:APFF & L:wt; APFF parent
In the case of B3, the Signal/Blank [11] is reported as 611 ratio and the “ECL signal” value [12] is reported as 189000 ECL counts.

B4: Fab VH1-46_IGHD6-6*01_IGHJ1*01 S102A/S103P/S104F/H111F (APFF) & L6_IGKJ1*01 S92C (Fab, V domains shown)
VH: B2 VH with S102A, S103P, S104F, H111F
VL: EIVLTQSPATLSLSPGERATLSCRASQSVSSYLAWYQQKPGQAPRLLIYDASNRATGIPARFSGSGSGTDFTLTISSLEPEDFAVYYCQQRCNWPPWTFGQGTKVEIKR
notes: Tested as Fab made in E. coli: VH cloned into Plasmid A (CH1, His6 and Flag tags), kappa VL into Plasmid C (kappa CL); also called APFF / S92C
An ECL signal [13] of 642, an ECL signal (rHuman ErbB2/Fc Chimera) of 526 and an ECL signal [14] of 1230 were found for B4 in this work. For the same binder, the ECL signal (rHuman CD44/Fc Chimera) was 554, the ECL signal [15] was 589 and the ECL signal [16] was 742. It also gave an ECL signal [17] of 642, an ECL signal (rHuman EGF R/Fc Chimera) of 588 and an ECL signal [18] of 805.

B5: Fab VH1-46_IGHD6-6*01_IGHJ1*01 S102A/S103P/S104F H111S & L6_IGKJ1*01 (Fab, V domains shown)
VH: B2 VH with S102A, S103P, S104F, H111S
VL: not shown
notes: Fab format is as for m1 (CH1 with His6/Flag from Plasmid A, kappa CL from Plasmid C); also called APF H111S
A Signal/Noise [19] of 24 was found for B5 in this work.

B6: Fab VH1-46_IGHD6-6*01_IGHJ1*01 S102A/S103P/S104F A106E & L6_IGKJ1*01 (Fab, V domains shown)
VH: B2 VH with S102A, S103P, S104F, A106E
VL: not shown
notes: Tested as Fab; also called APF A106E
A Signal/Noise [20] of 4.3 was found for B6 in this work.
